Patent publication US20250354131A1, “NOVEL GLYCOSYNTHASE” (CarboCode S.A., priority 2021, published 2025)

Legend:
Type in all cases: biochemical
[1] = Enzymatic conversion of lactosyl sphingoid bases with β-galactosidase; conditions: within about 48 to about 72 hours at about 37° C.; 1 M NaOAc pH 5.0, 5 g/L β-cyclodextrin, 5 g/L enzyme
Method: Enzymatic reactions were performed in 1 M NaOAc buffer (pH set to 5.0). A typical reaction mixture contained 50-100 g/L of lactosyl sphingoid base (synthesised according to the general procedure of Example 3 or Example 5), 5 g/L of β-cyclodextrin, 5 g/L of β-galactosidase (e.g. from A. oryzae). Typically, the reaction proceeds up to 99% conversion within about 48 to about 72 hours at about 37° C. and continuous stirring. The enzymatic reaction was followed by LCMS analysis (for methods and conditions see Example 9).
Samples (25 μL) were taken from reaction mixtures, mixed with DMSO (950 μL) and subjected to centrifugation (16.000 rpm, 5 min) and analyzed with a Shimadzu ECO 2020 LC system coupled with a Shimadzu LCMS-2020 system. The HPLC analysis was performed using a Merck Ascentis Express RP-Amide column (15 cm×4.6 mm, 2.7 μm). For analysis of compounds the eluent consisted of solvent D (2 mM ammonium formate, […], 75% v/v MeOH, 25% v/v ACN)-solvent C (2 mM formic acid in filtered ddH2O), and the following gradient was applied as stated in the table below. The flow rate was 1 mL/min. The MS analysis was performed under the following conditions: ESI positive ionization, vaporizer temperature 300° C.; LC-MS mode, 1:1 split of flow; ESI negative ionization, vaporizer temperature 300° C.; LC-MS mode, 1:1 split of flow.

[2] = Km determination of EGC synthases with lactosyl fluoride and sphingosine (HPLC-ELSD); conditions: acceptor sphingosine; for U/mg CFE: Donor Lac-F, cell-free extract; for Fold improvement to reference: relative to reference SEQ ID NO: 17, donor Lac-F
Method: The assay mixture contained 1 M sodium acetate buffer at pH 5.5, 20 mg/mL sphingosine-base and EGCS enzyme. As a reference, EGC synthase of SEQ ID NO:17 was used. Six different concentrations of lactosyl fluoride (Lac-F) ranging from 5 mg/mL to 164 mg/mL were assayed. From every assay mixture, four time points were collected by quenching the reaction with 19× volume of DMSO. The samples were analyzed by HPLC-ELSD analysis and conversion rates were determined by linear regression.

[3] = Production of lactosyl-6-hydroxysphingosine: conversion rates of different enzymes; conditions: 30 mg/mL 6-OH-Sph, 300 mg/mL Lac-F, 1 M NaOAc, pH 6.0, 37° C.
Method: Reaction contained: 30 mg/mL 6-OH-Sph, 300 mg/mL Lac-F, enzyme, 1 M NaOAc.
Reactions were executed at pH 6.0, 37° C. and 1500 rpm stirring. Product analysis was done by ELSD (% rel. conversion) and LC-MS using standard conditions for Lac-Sph analysis.

| Molecule | conversion [1] | U/mg CFE [2] [U/mg CFE] | Fold improvement to reference [2] | Conversion [% ELSD area product] ([3]; Time 1 h) | Conversion [% ELSD area product] ([3]; Time 2 h) |
| --- | --- | --- | --- | --- | --- |
| β-galactosidase | up to 99% | – | – | – | – |
| SEQ ID NO: 17: Reference EGC synthase, E351S, D314Y, A153T, Δ1-30, N-term. His-Tag; Rhodococcus sp. strain M-777 (protein, N-terminal His-tag) MGSSHHHHHHSSGLVPRGSHMSGSGSGSGTALTPSYLKDDDGRSLILRGFNTASSAKSAPDGMPQFTEADLAREYADMGTNFVRFLISWRSVEPAPGVYDQQYLDRVEDRVGWYAERGYKVMLDMHQDVYSGAITPEGNSGNGTGAIGNGAPAWATYMDGLPVEPQPRWELYYIQPGVMRAFDNFWNTTGKHPELVEHYAKAWRAVADRFADNDAVVAYDLMNEPFGGSLQGPAFEAGPLAAMYQRTTDAIRQVDQDTWVCVAPQAIGVNQGLPSGLTKIDDPRAGQQRIAYCPHLYPLPLDIGYGHEGLARTLTDVTIDAWRANTAHTARVLGDVPIILGSFGLDTTLPGARDYIERVYGTAREMGAGVSYWSSDPGPWGPYLPDGTQTLLVDTLNKPYPRAVAGTPTEWSSTSDRLQLTIEPDAAITAPTEIYLPEAGFPGDVHVEGADVVGWDRQSRLLTVRTPADSGNVTVTVTPAA | – | 0.074 | 1.0 | 99.4 | 100 |
| SEQ ID NO: 18: EGC synthase, E351S, D314Y, Δ1-30, N-term. His-Tag, Δ148-154; Rhodococcus sp. strain M-777 (protein, N-terminal His-tag) MGSSHHHHHHSSGLVPRGSHMSGSGSGSGTALTPSYLKDDDGRSLILRGFNTASSAKSAPDGMPQFTEADLAREYADMGTNFVRFLISWRSVEPAPGVYDQQYLDRVEDRVGWYAERGYKVMLDMHQDVYSGAITPEGAIGNGAPAWATYMDGLPVEPQPRWELYYIQPGVMRAFDNFWNTTGKHPELVEHYAKAWRAVADRFADNDAVVAYDLMNEPFGGSLQGPAFEAGPLAAMYQRTTDAIRQVDQDTWVCVAPQAIGVNQGLPSGLTKIDDPRAGQQRIAYCPHLYPLPLDIGYGHEGLARTLTDVTIDAWRANTAHTARVLGDVPIILGSFGLDTTLPGARDYIERVYGTAREMGAGVSYWSSDPGPWGPYLPDGTQTLLVDTLNKPYPRAVAGTPTEWSSTSDRLQLTIEPDAAITAPTEIYLPEAGFPGDVHVEGADVVGWDRQSRLLTVRTPADSGNVTVTVTPAA | – | – | – | 99.3 | 99.8 |
| SEQ ID NO: 5: EGC synthase, E350S, Δ146-152; Rhodococcus sp. AQ5-07 (protein) MRRIPLSALIVAGSLILGGGIAAAQGSLPTSGSAGGTDVPPSYLTDDAGRSLILRGFNTASSAKSAPDGMPKFTEADLEREHADMGTNFVRFLISWRSVEPEPGQYDQEYLDRVEDRVSWYAERGYKVMLDMHQDVYSGAITPEGNIGNGAPAWATYMDGLPVSPQDRWELYYIQPGVMRAFDNFWNTTGQHPELVEHYANAWQAVAERFAGNDTVVAYDLMNEPWGGSLQGPAFEGGPLAALYQRTTNAIREVDQDSWVCVAPQAVGVNQGVPSGLTKINDPRAGEQRIAYCPHLYPLPLDLGDGYSGLSRTLTDATIDTWRDSVEHIAGNVLGGVPVILASFGLDTTLPGATDYIDRVYATARELGAGVSYWSSDPGPWGPYLPDGTQTLLVDTLNRPYPRAVAGTPTEWSSSVDRLQLTFTPNPAVTAPTEIYLPESGFPGGVDVAGADIVNWNPQSRLLTVETADDAGPVTVTVTPAS | – | 0.61 | 8.2 | – | – |
| SEQ ID NO: 15: EGC synthase, E339S, Δ1-26; Rhodococcus hoagii 103S (SEQ ID NO: 14) (protein) MAPPATPITTLQADGTHLVDGYGRTVLLHGVNNVDKDAPYLPAGETLTPQDIDILVRHGFNTVRLGTSFDALMPQRGQIDEAYLDRLTGVVDALTARGMHVLLDNHQDGLSKAWGGNGFPEWAIESRPREWEPNPGFPLYYLMPSLNAGWDEVWGNTHGALDHLGTALGALAERVEGKPGVMGIELLNEPWPGSRFLSCFPNGCPDFDRTYQAAMQKLTDAVRAQNPTIPVYWEPNVTWNQMMPSNLFAPPVTPALTTADVVFAPHDYCIPSQLAIYLGLPQALRGLCVPQQDLTWSNIDAITERANVPTVITSFGDGDPTVLKNTLARADERFIGWQYWHFGAGNATDPFLGEVGRQLVRTYPQATAGEPGRMIFDADNGDFAYRFTPRAATRPTEIFVSDLHYPDGYAVQVDGGQVTSAPGARIVTVVADGSGPVTVKINRPGSAGAEVPDGPIETSSSGSSGSS | – | – | – | 3.7 | 9.1 |
| SEQ ID NO: 4: EGC synthase, E350S, Δ1-24, N-term. His-Tag; Rhodococcus sp. AQ5-07 (protein, N-terminal His-tag) MGHHHHHHMQGSLPTSGSAGGTDVPPSYLTDDAGRSLILRGFNTASSAKSEPEPGQYDQEYLDRVEDRVSWYAERGYKVMLDMHQDVYSGAITPEGNSGNGAGNIGNGAPAWATYMDGLPVSPQDRWELYYIQPGVMRAFDNFWNTTGQHPELVEHYANAWQAVAERFAGNDTVVAYDLMNEPWGGSLQGPAFEGGPLAALYQRTTNAIREVDQDSWVCVAPQAVGVNQGVPSGLTKINDPRAGEQRIAYCPHLYPLPLDLGDGYSGLSRTLTDATIDTWRDSVEHIAGNVLGGVPVILASFGLDTTLPGATDYIDRVYATARELGAGVSYWSSDPGPWGPYLPDGTQTLLVDTLNRPYPRAVAGTPTEWSSSVDRLQLTFTPNPAVTAPTEIYLPESGFPGGVDVAGADIVNWNPQSRLLTVEAPDGMPKFTEADLEREHADMGTNFVRFLISWRSVTADDAGPVTVTVTPAS | – | 0.20 | 2.7 | – | – |
| SEQ ID NO: 8: EGC synthase, E350S, D312Y, Δ1-24, N-term. His-Tag, Δ146-152; Rhodococcus sp. AQ5-07 (protein, N-terminal His-tag) MGHHHHHHMQGSLPTSGSAGGTDVPPSYLTDDAGRSLILRGFNTASSAKSEPEPGQYDQEYLDRVEDRVSWYAERGYKVMLDMHQDVYSGAITPEGNIGNGAPAWATYMDGLPVSPQDRWELYYIQPGVMRAFDNFWNTTGQHPELVEHYANAWQAVAERFAGNDTVVAYDLMNEPWGGSLQGPAFEGGPLAALYQRTTNAIREVDQDSWVCVAPQAVGVNQGVPSGLTKINDPRAGEQRIAYCPHLYPLPLDLGYGYSGLSRTLTDATIDTWRDSVEHIAGNVLGGVPVILASFGLDTTLPGATDYIDRVYATARELGAGVSYWSSDPGPWGPYLPDGTQTLLVDTLNRPYPRAVAGTPTEWSSSVDRLQLTFTPNPAVTAPTEIYLPESGFPGGVDVAGADIVNWNPQSRLLTVEAPDGMPKFTEADLEREHADMGTNFVRFLISWRSVTADDAGPVTVTVTPAS | – | 0.60 | 8.1 | 100 | 100 |
| SEQ ID NO: 6: EGC synthase, E350S, Δ1-24, N-term. His-Tag, Δ146-152; Rhodococcus sp. AQ5-07 (protein, N-terminal His-tag) MGHHHHHHMQGSLPTSGSAGGTDVPPSYLTDDAGRSLILRGFNTASSAKSEPEPGQYDQEYLDRVEDRVSWYAERGYKVMLDMHQDVYSGAITPEGNIGNGAPAWATYMDGLPVSPQDRWELYYIQPGVMRAFDNFWNTTGQHPELVEHYANAWQAVAERFAGNDTVVAYDLMNEPWGGSLQGPAFEGGPLAALYQRTTNAIREVDQDSWVCVAPQAVGVNQGVPSGLTKINDPRAGEQRIAYCPHLYPLPLDLGDGYSGLSRTLTDATIDTWRDSVEHIAGNVLGGVPVILASFGLDTTLPGATDYIDRVYATARELGAGVSYWSSDPGPWGPYLPDGTQTLLVDTLNRPYPRAVAGTPTEWSSSVDRLQLTFTPNPAVTAPTEIYLPESGFPGGVDVAGADIVNWNPQSRLLTVEAPDGMPKFTEADLEREHADMGTNFVRFLISWRSVTADDAGPVTVTVTPAS | – | – | – | 100 | 100 |
